Measurements taken from the DeepSol protein solubility set.

assay: soluble on expression in E. coli; label from the status in PepcDB or PDB records

Row | Sequence | soluble on expression in E. coli
1 | GPGSMVRCSRPAFRQVCRAWGTRVSYTHMLMAESFVKSPHARHAEFARYEGENRLVAQLAAKSGPAAAQAALLLRPYCDGIDLNCGCPQRWAMKEGIGAALLDQPERVADMVRSIRNAMPDGSTAPMIVGNGGEYSSCTSAVPPFLPCVVKMRIKDDLRRSVDFARQCEAAGVSWLTVHGRTPTCHSSTAVQFEAVKLIRENLSVPVVLNGGVTDVSTAMEAALRTGCGGLMSANGLLDNPAMFYCGASRAAMEAEMSFVTSCWGRPPRTCDPVSPPAETAAPDVFSEVFSPVRPVSFLWAPDRSNAEAVLLRYTVADMWQAAVTPREVISDFMRAAMRTDLVVPTTVQQVLRMARLYVSPAERNHLALLRSNLSVLNALQEIDVYVESGRIACE | not soluble
2 | APPGPPASGPCADLQSAINAVTGGPIAFGNDGASLIPADYEILNRVADKLKACPDARVTINGYTDNTGSEGINIPLSAQRAKIVADYLVARGVAGDHIATVGLGSVNPIASNATPEGRAKNRRVEIVVN | soluble
3 | GPGSMALRDIVGKQMLRQTVLQPRLKLPAGRVVSIEEGWRLARLVREGEEHASAVAVEAAEGMVAPSSVVLEDDVSKRILLLRHKKRKEGDTKAAVRYAQRSRAVPVVGKVAPEVRDIALNVLRKNPIGRAELRARHERSKAKRATKGSDSTRAKRAGRL | not soluble
4 | SGSDVRDLNALLPAVPSLGGGGGCALPVSGAAQWAPVLDFAPPGASAYGSLGGPAPPPAPPPPPPPPPHSFIKQEPSWGGAEPHEEQCLSAFTVHFSGQFTGTAGACRYGPFGPPPPSQASSGQARMFPNAPYLPSCLESQPAIRNQGYSTVTFDGTPSYGHTPSHHAAQFPNHSFKHEDPMGQQGSLGEQQYSVPPPVYGCHTPTDSCTGSQALLLRTPYSSDNLYQMTSQLECMTWNQMNLGATLKG | soluble
5 | MGHHHHHHSHMLAWHVLMGNQVIWKSRDVDLVQSAFEVLRTMLPVGCVRIIPYSSQYEEAYRCNFLGLSPHVQIPPHVLSSEFAVIVEVHAAARSTLHPVGCEDDQSLSKYEFVVTSGSPVAADRVGPTILNKIEAALTNQNLSVDVVDQCLVCLKEEWMNKVKVLFKFTKVDSRPKEDTQKLLSILGASEEDNVKLLKFWMTGLSKTYKSHLMSTVRSPTASESRN | not soluble
6 | MGSDKIHHHHHHMKVEVNSQALADAVAWTTRVIDARPATPILAGIRLEAIDGTLQLSAFNYAISARHHIEAGVDEAGSVLVLGKLLADITKSLPAAKTYLSTDGSTMTITSGKSTFTMQLMPESEYPDLPVVPTKLGQVDSPTFAQAVNQASVAVSREENRPVLTGIRVQFQGDKVIMSSTDRFRLARSSFTWTPEDATISTTALVRGSLLRDMARSLDEHQNVTIDFDADNPSLLGFENAGRVSTSQLIDGEFPAVDRLYADEYPIHAVINKQALIDAIKRVSLVAERNAPIRMVFSGQELTLSAGTADEAQAKEILDIDMDGEDITVAFNPSYLVDGLSAISEPFVRMKMTTAVKPVEFNGQQEADSDESMDYRYLLVPMRFNN | not soluble
7 | ASIPEGTDKNAPLTSIPGYIPNMLSPPKGDAFAARNQFALAIDFEHQPPFFDVTETHKAATWLLHPQAPKVEMPADVKEKIAITRKALAIKMPSQPVKQPKSNGNKKTKTKSAR | soluble
8 | MSLKLHKGIKEYECKECHRRFAQKVNMLKHCKRHTGIKDFMCELCGKTFSERNTMETHKLIHTVGKQWTCSVCDKKYVTEYMLQKHVQLTHDKVEAQSCQLCGTKVSTRASMSRHMRRKHPEVLAVRIDEGHHHHHH | soluble
9 | MTTQQKKSSTRQGFKTGESIVYPAHGVGQIVAIEEQEVAGMKLELFVIDFEKDKMRLKVPVAKAVGIGMRKLSETDFVDRALKVVQGKARVKRTMWSRRAQEYDAKINSGDLISIAEVVRDLYRAENQPEQSYSERQLYEAALDRMAREIAAVNRMSETEAVRLVEANLNKGPKRGKAIEEDDAQDEAA | not soluble
10 | MGSDKIHHHHHHMADIALFQDDAFSLSSLTAAINEQPHVPGRVGALGLFEEDGITTTTIQIERDGDTLSLVSAGERGSPSAIVVGSKRTMIPFNTVHLPQRAFVKADEIQNLRAFGSETELEALQTVVNRRLAKLRRQLDATHEFHRIGAIKGAVLDADGKTVLIDLLQYFGIEQTVIPFELGKADTEIRVKCLEVQDAIEDALGATTYTGVRVLCGRAFWNKLIVAKTVKETYLATAMAASLRGDAREALDFGGCTFERYRGRVGDIGYVADDEAYAVPEGVPELFVTRFAPADYVEAVNTTGLPYYAKQELAQFGKGVDIEAQSNPVHLCTRPKAIVKLKA | not soluble
11 | MGSDKIHHHHHHMETFGGQVGRQEVPESSIDRYRGKLPNQLLTYWAEHGWCGYGDGIFWTVNPQEYDAVVASWLEGTKFETFDAYHLIARSAFGDLYLWGEEIGASLKITSILSRYTTHKSLCLGSQMDKGLQSFILSRKVGSNDYGDLFRPARKKLGTLHHDEMYGFVPALMLGGADTLDHLEKVKAVEHLVLLSQLSDLESYDFQDL | not soluble
12 | GMGKEIEIERKTLVSKETFKRLISQLHIGEGDFKLQRNHYFETDDFQLKKQSSALRIREKEAIFTFTLKQPHPAGLLETNQTLSKQEAKLALESAHFPSGEVMDALRDLSIPISQLKHIGTLSTSRAEISYEQGILCLDHSSYLGIEDYEIEFEGTSEEHATVTFQEILKTFSISQVPTENKIQRFFSKKEKN | soluble
13 | MGSDKIHHHHHHMKSNVVVKYPVNSELANYAEKFWKKELAIYNLSLILNKMTPFVKRRSESYKSSLSAVKEIFKNVDDFQNFLNSVLRRSLDEYRVFFENYERLFNSFSSKIFSMRTKSRLVVGLGDESVYETSIRLHRNYGVPYIPGSALKGVAKHYAFSILARENGDEILRIYESVKEDLKARIAKRDKIKKNDVPEDYYLTAAVIQELFEKKFDELGAIRNTRVEIGDTVISVGDIVKIFGTQKEEGSVIFFDAFPTPEQLKDKPNLELDIMNPHYQPYYQHGEPPGDWHSPNPIFFLTVPAGVEFTFAVASRDLDDLAEKAEKLLKEALKKFGVGAKTSLGYGRFDARDDR | not soluble
14 | MPLELWIVFNLFGRKSPRSNIKPARGPGETVREADLRYLQEWVSTHAVVEAFVEPETIVNEMSVVLVDITGEFTRRRIGGPKGIDVISSTLGVPVYDVEETGYPQRMREKIERDRILRKREEQRERREKLQRERGESQ | not soluble
15 | MGSSHHHHHHGKTIFVIVPTNEEQVAFLEALAKQDELNFDWQNPPTEPGQPVVILIPSDMVEWFLEMLKAKGIPFTVYVEEGGSENLYFQGGGGGGFYVRTPGKRLLEDKVGKDGLSHYSSEFSSRSSSAELKESRASKCSTTTKRSFAENAAGGTADSSKSHRSMPEVVSAQSQHSKTTGSHKRD | soluble
16 | SEEFLQRAKSKLNRSKRLEKVHVVIGPKSCDLDSLISTFTYAYFLDKVSPPGVLCLPVLNIPRTEFNYFTETRFILEELNISESFHIFRDEINLHQLNDEGKLSITLVGSSVLASEDKTLESAVVKVINPVEQSDANVEFRESSSSLVLKEILQEAPELITEQLAHRLRGSILFKWMTMESEKISEKQEEILSILEEKFPNLPPREDIINVLQETQFSAQGLSIEQTMLKDLKELSDGEIKVAISTVSMNLEVRVGMLF | soluble
17 | MSLNYSVLPPEINSLRMFTGAGSAPMLAASVAWDRLAAELAVAASSFGSVTSGLAGQSWQGAAAAAMAAAAAPYAGWLAAAAARAAGASAQAKAVASAFEAARAATVHPMLVAANRNAFVQLVLSNLFGQNAPAIAAAEAMYEQMWAADVAAMVGYHGGASAAAAQLSSWSIGLQQALPEGHHHHHH | soluble
18 | MAASTSSSSSSSSSSLSSPSPCTWRYMTFTSFHGPDVRNTFLSHLRKQFNTNGITMFDDQRMERSQTLAPTLTQAIRESKIYIVLLSKNYASSSWCLDELLEILNCKEKRGQRVMTIFYGVNPSDVRKQTGEFGIAFNETCARKTEEERRKWSHALTCVGNITGVHVQDRDDEANMIEKIATDVSEKLNATESKDFDEMVGIKAHLTKIESLLSLDYDKVKIVGISGPAGIGKSTIARALHNLLSSSFHLSCFMENLISQSNPHSSLEYSSKLSLQEQLLSQVLNEKDIRIRHLGAIQERLHDQRVLIILDDVTSLEQLEVLANIKWYGPGSRIIVITKKKDILVQHGICDIYHVGFPTDADALKIFCLSAYRQTSPPDGSMKIHECEMFIKICGNLPLHLHVLGSALRGRSYGRVQSLCNLVSLADFV | not soluble
19 | MNDIPVQHNKNRCPSHPGDLLAEIIPATGKTKLEIAQMLGISRQHLYAILRAKKPISPSVSARLGKLFGDGAAVWLRMQAAYDAWHAEHETDVSQIPTLHVV | not soluble
20 | MTDKPTYEQTLRGNAIRAISACDLDEKVRLARETASRWFARALSVRSPLDPPLPERPGRPEKPELVPPRMLKKRSLNTEHGRIALMHALAHIELNAIDLALDIVARFAVKPIPRSFFDGWMKVADDEARHFTLLRNRLKSLGADYGDMPAHDGLWQSAHQTRNDLEARLAVVPLILEARGLDVTPSLLEKMIETGDHETAAILNIIYNDEKTHVAVGAKWFRFFCARNRIDPAARFRELVRANFRGELKPPFNELARAEAGLTPSFYRSLSPVSILEHHHHHH | not soluble
21 | MRTRSQVWAQKAYEKVREAAKGEGRGEYRDMALKLPVLVRQAGLSQALAFVDSRGKEAHKALGNDLAQVLGYRDLRELAEAAREAELLQYLRLTREVLAAAEWFKRFAQALIEE | soluble
22 | MSLCGIAGTLNSSCFSSKKLLAALAHRGPSGHGEFSHQGVNLFHARLSIQDLSPAGAQPMHRHHLSIVFNGEIYNHLELRAKVADYPFSTRSDTETILALFERFGERSLEWMDGMFALAILDQRTHKLFLARDRMGKKPLFYYQEGEEFLFASELNALLTLKPLQIDHAKLSAFLRCGFFPHDGAPYQGVQSLPQGSYAFIDLHHPRPLSPQRYFDLLSLYQAPKIEGFEASKEAVELALKESVKNRLESSDLEVGSFLSGGIDSSLITALASFFTPKLKTFTVAFEGAYDESSLAELVAKRYKTDHTTLHLNPSKLKEEVKGILACYGRPFMDSSAIPSYYVSQEAKKHLTVILNGDGADELFGGYRRYVPMSHGWLKLARPLSLLLPLLPLPKEKKSLYNYLHRLLAMSRKRGLDFYLSATIDSFEDAYAFSPNPHTQTLDQEITQILEDSSLSSLSKMLYLDSQNLLLSDLLPKMDIATMAHSLEGRSPFLGKSLLEVAPRIKDEYKIFGKSTKFILRELAKKYLPHALLEQPKRGFEVPLRAWVEGELKELIFDSLSKNCLSRELIESRFVDALLDKPQDFAPEKRAKMLWSLFSLEVWHEHYQKACEEGHHHHHH | soluble
23 | MGSDKIHHHHHHMSQVVIAVLANAGGVGKSTLSVHLAYEVSRRKLKVALLDLDPQRSLDVFCGLEAAEAEKTMFKVLSKDFIGDWALASAWDEPRIEVCQGHPLLAEIANELVIRKRGEYMLADRLQKYSLPHDLVIVDCPATLGMLNVNALAAATHILVPIQLEMKAISGSAELVEWCMNTSEELQLTPKPQILGFVPSMYDETVAMHRQYHSQLPEIALQLDIKLYPKIRSSNEFKNASAHGLPLHKYRNKHPACKDFKQIADDVIQLIKNK | not soluble
